# Source: patent US20060252724A1 (Pfizer, published 2006)
# B1: retrovirally produced BMP-3 (from pBABE-BMP3, full-length human BMP-3 cDNA, secreted by infected W-20-17 cells) (ligand)
# chain: QWIEPRNCARRYLKVDFADIGWSEWIISPKSFDAYYCSGACQFPMPKSLKPSNHATIQSIVRAVGVVPGIPEPCCVPEKMSSLSILFFDENKNVVLKVYPNMTVESCACR
# notes: Expressed from the full-length human cDNA; The secreted, processed form has a most abundant monomer of about 28 kD, with glycosylated or alternatively processed forms; also called vBMP3; BMP-3 CM
# Target: T1, rhBMP-2 (recombinant human bone morphogenetic protein-2) (human, UniProt P12643 283-396)
# T1 construct: Control protein on the Western blot; Analysed on reducing SDS-PAGE
# T1 sequence (P12643 283-396 limits assumed): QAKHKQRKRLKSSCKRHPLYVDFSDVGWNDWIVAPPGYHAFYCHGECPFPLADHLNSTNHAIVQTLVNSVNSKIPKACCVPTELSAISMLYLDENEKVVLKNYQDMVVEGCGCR
# Experiment: co-immunoprecipitation
binder,measurement,value
B1,binding result,no binding
